Measured values as given in article PMC3741289.

How the values were obtained:
[1] = molecular target: wild type HspB5 (αB-crystallin) (human) (UniProt P02511); experiment: co-IP; as the 150 mM experiment, but washes of the immunoprecipitated proteins in IPP300 buffer (0.3 M NaCl)
[2] = molecular target: wild type HspB5 (αB-crystallin) (human) (UniProt P02511); experiment: SEC; cells treated for 2 h with 60 µM menadione before lysis; 10,000×g supernatant on Sepharose 6B in TEM buffer; fractions immunoblotted
[3] = molecular target: wild type HspB5 (αB-crystallin) (human) (UniProt P02511); experiment: SEC; untreated Neo, WT or R120G HeLa cells lysed in TEM buffer with 0.1% Triton X-100; 10,000×g supernatant on a Sepharose 6B column (1×100 cm) in TEM buffer (20 mM Tris-HCl pH 7.4, 20 mM NaCl, 5 mM MgCl2, 0.1 mM EDTA); pooled fractions immunoblotted
[4] = molecular target: HspB1 (Hsp27) (human (endogenous in HeLa)) (UniProt P04792); experiment: co-IP; as the 150 mM experiment, but washes of the immunoprecipitated proteins in IPP300 buffer (0.3 M NaCl)
HspB1 (Hsp27) (human (endogenous in HeLa)), sequence (P04792 whole entry): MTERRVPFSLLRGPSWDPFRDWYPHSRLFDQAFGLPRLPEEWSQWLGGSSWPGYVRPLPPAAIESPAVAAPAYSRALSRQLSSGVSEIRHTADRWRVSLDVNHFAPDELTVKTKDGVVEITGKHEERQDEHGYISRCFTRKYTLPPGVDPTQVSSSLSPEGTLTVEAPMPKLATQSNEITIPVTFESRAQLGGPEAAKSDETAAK

[5] = molecular target: HspB1 (Hsp27) (human (endogenous in HeLa)) (UniProt P04792); experiment: co-IP; pooled gel filtration fractions (pool I of WT cells, pool II of R120G cells) with anti-HspB1 or anti-HspB5 antibody, 4 h at 4°C, protein G sepharose; washes in IPP150 (20 mM Tris-HCl pH 8, 150 mM NaCl, 0.05% NP-40); immunoblot of total, precipitate and depleted supernatant

wild type HspB5 (αB-crystallin) (human), sequence (P02511 whole entry): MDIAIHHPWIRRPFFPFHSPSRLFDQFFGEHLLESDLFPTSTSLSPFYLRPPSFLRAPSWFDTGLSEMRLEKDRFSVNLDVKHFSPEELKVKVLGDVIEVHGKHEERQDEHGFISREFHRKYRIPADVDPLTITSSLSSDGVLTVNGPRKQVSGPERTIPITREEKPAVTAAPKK

| Substance | percent of the soluble phosphorylated form in the complex [2] | percent of the total cellular content of the phosphorylated form in the complex [2] | also measured |
| --- | --- | --- | --- |
| HspB1 (Hsp27) (from UniProt P04792 1-205) (natural protein) |  |  | percent of the partner removed from the complex by the 300 mM NaCl wash [1]: 40%; percent of soluble HspB1 back in the small oligomers (out of the complex) [2]: 38%; percent of HspB1 sharing the native size of HspB5 [3]: 90% |
| HspB1 phosphorylated at serine 82 (from UniProt P04792 1-205) (natural protein) | 51% | 27% | percent of the total cellular content of the phosphorylated form in the complex [3]: 56% |
| wild type HspB5 (αB-crystallin) (from UniProt P02511 1-175) (natural protein) |  |  | percent of the partner removed from the complex by the 300 mM NaCl wash [4]: 40%; percent of the proteins in the pooled fractions that were in the complex [5]: 100% |

Further lines, with some results ahead:

| percent of the soluble phosphorylated form in the complex [2] | percent of the total cellular content of the phosphorylated form in the complex [2] | Substance | also measured |
| --- | --- | --- | --- |
| 56% | 28% | HspB1 phosphorylated at serine 15 (from UniProt P04792 1-205) (natural protein) |  |
| 65% | 31% | HspB1 phosphorylated at serine 78 (from UniProt P04792 1-205) (natural protein) |  |
